From patent US20150299268A1

Tests used:
[1] = target: gp120-VRC01-ScFV; experiment: ELISA
[2] = target: BaL-gp120 (HIV-1 BaL); experiment: ELISA
[3] = target: FLSC R/T (HIV-1) (UniProt P01730); experiment: ELISA
[4] = target: gp120-JR48.1-ScFV; experiment: ELISA
[5] = target: gp120-b12-ScFV; experiment: ELISA
[6] = target: gp120-JR4-ScFV; experiment: ELISA
[7] = target: BaL-gp120-E47AE91A (HIV-1 BaL); experiment: capture ELISA
[8] = target: core-D7 (HIV-1); experiment: capture ELISA
[9] = target: BaL-gp120-W69A (HIV-1 BaL); experiment: capture ELISA
[10] = target: BaL-gp120-T455A (HIV-1 BaL); experiment: capture ELISA
[11] = target: BaL-gp120-G495A (HIV-1 BaL); experiment: capture ELISA
[12] = target: BaL-gp120-S334A (HIV-1 BaL); experiment: capture ELISA
[13] = target: BaL-gp120-Y61A (HIV-1 BaL); experiment: capture ELISA
[14] = target: BaL-gp120-E47A (HIV-1 BaL); experiment: capture ELISA
[15] = target: BaL-gp120-I423A (HIV-1 BaL); experiment: capture ELISA
[16] = target: BaL-gp120-S200A (HIV-1 BaL); experiment: capture ELISA
[17] = target: BaL-gp120-mV3 (HIV-1 BaL); experiment: capture ELISA
[18] = target: BaL-gp120-R58AK59A (HIV-1 BaL); experiment: capture ELISA
[19] = target: BaL-gp120-K46A (HIV-1 BaL); experiment: capture ELISA
[20] = target: BaL-gp120-P498A (HIV-1 BaL); experiment: capture ELISA
[21] = target: BaL-gp120-D57AD62A (HIV-1 BaL); experiment: capture ELISA
[22] = target: BaL-gp120-R476AR480A (HIV-1 BaL); experiment: capture ELISA
[23] = target: BaL-gp120-Y40A (HIV-1 BaL); experiment: capture ELISA
[24] = target: BaL-gp120-K500A (HIV-1 BaL); experiment: capture ELISA
[25] = target: BaL-gp120-R476A (HIV-1 BaL); experiment: capture ELISA
[26] = target: BaL-gp120-S158A (HIV-1 BaL); experiment: capture ELISA
[27] = target: BaL-gp120 (HIV-1 BaL); experiment: capture ELISA
[28] = target: BaL-gp120-F53A (HIV-1 BaL); experiment: capture ELISA
[29] = target: FLSC (HIV-1) (UniProt P01730); experiment: capture ELISA
[30] = target: BaL-gp120-T303A (HIV-1 BaL); experiment: capture ELISA
[31] = target: BaL-gp120-V75A (HIV-1 BaL); experiment: capture ELISA
[32] = target: BaL-gp120-V44A (HIV-1 BaL); experiment: capture ELISA
[33] = target: BaL-gp120-T162A (HIV-1 BaL); experiment: capture ELISA
[34] = target: BaL-gp120-V496A (HIV-1 BaL); experiment: capture ELISA
[35] = target: BaL-gp120-K33A (HIV-1 BaL); experiment: capture ELISA
[36] = target: BaL-gp120-I491A (HIV-1 BaL); experiment: capture ELISA
[37] = target: BaL-gp120-D368R (HIV-1 BaL); experiment: capture ELISA
[38] = target: BaL-gp120-dV3 (HIV-1 BaL); experiment: capture ELISA
[39] = target: BaL-gp120-L494A (HIV-1 BaL); experiment: capture ELISA
[40] = target: BaL-gp120-P493A (HIV-1 BaL); experiment: capture ELISA
[41] = target: BaL-gp120-W35A (HIV-1 BaL); experiment: capture ELISA
[42] = target: BaL-gp120-K487AK490A (HIV-1 BaL); experiment: capture ELISA
[43] = target: BaL-gp120-E106AD107A (HIV-1 BaL); experiment: capture ELISA
[44] = target: BaL-gp120-D57A (HIV-1 BaL); experiment: capture ELISA
[45] = target: BaL-gp120-P76A (HIV-1 BaL); experiment: capture ELISA
[46] = target: BaL-gp120-T499A (HIV-1 BaL); experiment: capture ELISA
[47] = target: BaL-gp120-Y39A (HIV-1 BaL); experiment: capture ELISA
[48] = target: BaL-gp120-D62A (HIV-1 BaL); experiment: capture ELISA
[49] = target: BaL-gp120-E492A (HIV-1 BaL); experiment: capture ELISA
[50] = target: BaL-gp120-D57AD78A (HIV-1 BaL); experiment: capture ELISA
[51] = target: core-V3-D7 (HIV-1); experiment: capture ELISA
[52] = target: BaL-gp120-D78A (HIV-1 BaL); experiment: capture ELISA
[53] = target: BaL-gp120-dV1 (HIV-1 BaL); experiment: capture ELISA
[54] = target: BaL-gp120-E31A (HIV-1 BaL); experiment: capture ELISA
[55] = target: BaL-gp120-dV2 (HIV-1 BaL); experiment: capture ELISA
[56] = target: BaL-gp120-V68A (HIV-1 BaL); experiment: capture ELISA
[57] = target: BaL-gp120-E32A (HIV-1 BaL); experiment: capture ELISA
[58] = target: BaL-gp120-W45A (HIV-1 BaL); experiment: capture ELISA
[59] = target: BaL-gp120-H105A (HIV-1 BaL); experiment: capture ELISA
[60] = target: core-V1V2-D7 (HIV-1); experiment: capture ELISA
[61] = target: BaL-gp120-I420R (HIV-1 BaL); experiment: capture ELISA

Which Fold of Ab needed for ELISA binding OD equal to half max on gp120 [1] does the source give for A32 (antibody) here?
Its Fold of Ab needed for ELISA binding OD equal to half max on gp120 is 0.2 fold.

And the Fold of Ab needed for ELISA binding OD equal to half max on gp120 [2]?
Its Fold of Ab needed for ELISA binding OD equal to half max on gp120 is 1 fold.

What about the Fold of Ab needed for ELISA binding OD equal to half max on gp120 [3] of the same substance?
The Fold of Ab needed for ELISA binding OD equal to half max on gp120 was 0.04 fold.

And the Fold of Ab needed for ELISA binding OD equal to half max on gp120 [4]?
The Fold of Ab needed for ELISA binding OD equal to half max on gp120 was 0.1 fold.

And the Fold of Ab needed for ELISA binding OD equal to half max on gp120 [5]?
Its Fold of Ab needed for ELISA binding OD equal to half max on gp120 is 0.06 fold.

And the Fold of Ab needed for ELISA binding OD equal to half max on gp120 [6]?
The Fold of Ab needed for ELISA binding OD equal to half max on gp120 was greater than 100 fold.

PG9 (antibody) was tested. Which Fold of Ab needed for ELISA binding OD equal to half max on gp120 [1] did it give?
The Fold of Ab needed for ELISA binding OD equal to half max on gp120 was 0.09 fold.

And the Fold of Ab needed for ELISA binding OD equal to half max on gp120 [2]?
The Fold of Ab needed for ELISA binding OD equal to half max on gp120 was 1 fold.

What about the Fold of Ab needed for ELISA binding OD equal to half max on gp120 [3] of the same substance?
The Fold of Ab needed for ELISA binding OD equal to half max on gp120 was 8.02 fold.

What about the Fold of Ab needed for ELISA binding OD equal to half max on gp120 [4] of the same substance?
Its Fold of Ab needed for ELISA binding OD equal to half max on gp120 is 0.07 fold.

What about the Fold of Ab needed for ELISA binding OD equal to half max on gp120 [5] of the same substance?
Its Fold of Ab needed for ELISA binding OD equal to half max on gp120 is 0.06 fold.

And the Fold of Ab needed for ELISA binding OD equal to half max on gp120 [6]?
Its Fold of Ab needed for ELISA binding OD equal to half max on gp120 is 0.02 fold.

For PG04 (antibody), which Fold of Ab needed for ELISA binding OD equal to half max on gp120 [2] is on record?
The Fold of Ab needed for ELISA binding OD equal to half max on gp120 was 1 fold.

And the Fold of Ab needed for ELISA binding OD equal to half max on gp120 [4]?
The Fold of Ab needed for ELISA binding OD equal to half max on gp120 was 0.36 fold.

What about the Fold of Ab needed for ELISA binding OD equal to half max on gp120 [5] of the same substance?
Its Fold of Ab needed for ELISA binding OD equal to half max on gp120 is greater than 100 fold.

And the Fold of Ab needed for ELISA binding OD equal to half max on gp120 [6]?
Its Fold of Ab needed for ELISA binding OD equal to half max on gp120 is 0.26 fold.

With PGT128 (antibody) as the substance, how does the Fold of Ab needed for ELISA binding OD equal to half max on gp120 [1] read?
The Fold of Ab needed for ELISA binding OD equal to half max on gp120 was 0.23 fold.

What about the Fold of Ab needed for ELISA binding OD equal to half max on gp120 [2] of the same substance?
The Fold of Ab needed for ELISA binding OD equal to half max on gp120 was 1 fold.

And the Fold of Ab needed for ELISA binding OD equal to half max on gp120 [3]?
Its Fold of Ab needed for ELISA binding OD equal to half max on gp120 is 5.07 fold.

What about the Fold of Ab needed for ELISA binding OD equal to half max on gp120 [4] of the same substance?
Its Fold of Ab needed for ELISA binding OD equal to half max on gp120 is 0.14 fold.

And the Fold of Ab needed for ELISA binding OD equal to half max on gp120 [5]?
The Fold of Ab needed for ELISA binding OD equal to half max on gp120 was 0.09 fold.

What about the Fold of Ab needed for ELISA binding OD equal to half max on gp120 [6] of the same substance?
The Fold of Ab needed for ELISA binding OD equal to half max on gp120 was 0.13 fold.

Which results are given for 2G12 (antibody)?
% Binding [7]: 86%; % Binding [8]: 100%; % Binding [9]: 87%; % Binding [10]: 87%; % Binding [11]: 93%; % Binding [12]: 16%; % Binding [13]: 81%; % Binding [14]: 96%; % Binding [15]: 94%; % Binding [16]: 92%; % Binding [17]: 100%; % Binding [18]: 88%; % Binding [19]: 92%; % Binding [20]: 93%; % Binding [21]: 105%; % Binding [22]: 83%; % Binding [23]: 93%; % Binding [24]: 92%; % Binding [25]: 98%; % Binding [26]: 80%; % Binding [27]: 100%; % Binding [28]: 99%; % Binding [29]: 104%; % Binding [30]: 88%; % Binding [31]: 89%; % Binding [32]: 93%; % Binding [33]: 87%; % Binding [34]: 96%; % Binding [35]: 83%; % Binding [36]: 92%; % Binding [37]: 82%; % Binding [38]: 100%; % Binding [39]: 79%; % Binding [40]: 93%; % Binding [41]: 99%; % Binding [42]: 83%; % Binding [43]: 79%; % Binding [44]: 91%; % Binding [45]: 90%; % Binding [46]: 100%; % Binding [47]: 89%; % Binding [48]: 86%; % Binding [49]: 93%; % Binding [50]: 95%; % Binding [51]: 86%; % Binding [52]: 87%; % Binding [53]: 93%; % Binding [54]: 80%; % Binding [55]: 82%; % Binding [56]: 82%; % Binding [57]: 93%; % Binding [58]: 92%; % Binding [59]: 89%; % Binding [60]: 100%; % Binding [61]: 93%; Fold of Ab needed for ELISA binding OD equal to half max on gp120 [1]: 0.66 fold; Fold of Ab needed for ELISA binding OD equal to half max on gp120 [2]: 1 fold; Fold of Ab needed for ELISA binding OD equal to half max on gp120 [3]: 0.91 fold; Fold of Ab needed for ELISA binding OD equal to half max on gp120 [4]: 0.58 fold; Fold of Ab needed for ELISA binding OD equal to half max on gp120 [5]: 0.56 fold; Fold of Ab needed for ELISA binding OD equal to half max on gp120 [6]: 0.61 fold
